Assay results from patent US5789547.

Biological target: human insulin-like growth factor-I (IGF-I) (human)

yield of correctly folded (native) protein by RP-HPLC after cofolding, against each protein refolded alone: 99.6%
Substance: human insulin-like growth factor binding protein-3 (IGFBP-3), recombinant, from pDJ12833 (from UniProt P17936)
